Values quoted from earlier work in PMC8687316.

Target: p53 (Homo sapiens) (UniProt P04637)
Sequence (P04637 whole entry): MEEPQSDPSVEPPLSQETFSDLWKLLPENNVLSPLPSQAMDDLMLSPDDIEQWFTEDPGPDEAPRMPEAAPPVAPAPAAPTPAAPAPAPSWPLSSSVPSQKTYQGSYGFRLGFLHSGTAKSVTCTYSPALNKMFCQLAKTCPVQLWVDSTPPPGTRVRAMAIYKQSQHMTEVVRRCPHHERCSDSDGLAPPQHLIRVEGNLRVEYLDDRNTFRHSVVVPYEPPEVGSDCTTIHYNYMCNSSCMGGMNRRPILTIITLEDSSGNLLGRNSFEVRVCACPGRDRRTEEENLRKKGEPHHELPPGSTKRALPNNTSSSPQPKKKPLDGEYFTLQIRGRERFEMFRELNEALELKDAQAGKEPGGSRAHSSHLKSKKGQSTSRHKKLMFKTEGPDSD

Sequence of Mdm2 (Q00987 whole entry): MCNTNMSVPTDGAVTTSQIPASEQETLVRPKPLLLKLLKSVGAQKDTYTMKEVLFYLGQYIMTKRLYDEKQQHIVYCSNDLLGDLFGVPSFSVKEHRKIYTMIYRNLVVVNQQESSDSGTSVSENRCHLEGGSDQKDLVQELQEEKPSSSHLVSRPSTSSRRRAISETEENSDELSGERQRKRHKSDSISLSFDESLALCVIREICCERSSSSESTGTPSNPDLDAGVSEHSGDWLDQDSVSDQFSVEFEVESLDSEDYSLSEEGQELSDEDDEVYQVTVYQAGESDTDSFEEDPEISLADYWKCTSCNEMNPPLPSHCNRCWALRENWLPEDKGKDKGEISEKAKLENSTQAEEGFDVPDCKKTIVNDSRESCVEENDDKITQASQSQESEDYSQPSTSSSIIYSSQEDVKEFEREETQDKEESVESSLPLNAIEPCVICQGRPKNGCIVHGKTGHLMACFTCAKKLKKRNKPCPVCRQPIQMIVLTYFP

Kd: 1.44 nM
Substance: Mdm2 (from UniProt Q00987)
